Changes are numbered by the printed parent chain. Numbers in names are those of the source.
Legend:
[1] = system: Brachypodium distachyon; assay: stomatal conductance after ABA added to the transpiration stream (gas exchange analyzer); type: in vivo; conditions: 2 μM ABA
Description: We next investigated stomatal closure in response to abscisic acid.
(top infrared thermal image, bottom photo of the same plants). • (B) Stomatal density and (C) stomatal index were determined using leaf imprints created of the 4th true leaf of plants with 3 independent replicates plants per genotype with 4 images per plant. Circles represent counts per each image while diamonds are the average per each plant. Error bars represent SEM while p-values were obtained from two-tailed t-tests comparing mutant to WT. • (D) Stomatal conductance was quantified using a gas exchange analyzer. […] Data shown are the average of n=3±SEM plants per genotype using 1 leaf per experiment and genotype.
FIG. 14 (or FIG. 8 of Example 2): Bdmpk5 CRISPR Alleles Show Strong CO2 insensitivity but functional ABA responses. • (A, B) 5 to 6 week old plants were analyzed in time-resolved stomatal conductance analyses. • (A) CRISPR alleles show strongly impaired stomatal responses to CO2 shifts. […] Data shown are the average of n=3±SEM experiments using one leaf per experiment and genotype. • (C,D) Stomatal density (C) and stomatal index (D) were determined using leaf imprints created of the 4th true leaf with 3 replicate plants and genotype. […]

[2] = system: BdMPK5, HT1 and CBC1; assay: in vitro phosphorylation assay with GST-CBC1, His-HT1 and His-BdMPK5; type: biochemical, Brachypodium distachyon; conditions: with or without 20 mM NaHCO3, n=2
Description: Furthermore, this activation of CBC1 is inhibited by elevated CO2/bicarbonate only when HT1, CBC1 and MPK4 or MPK12 are included in the reconstituted reaction (Takahashi et al., 2022). […] The high CO2/bicarbonate response was similar to high CO2 responses found for AtMPK4 and AtMPK12, but not for the close homolog AtMPK11 (Takahashi et al., 2022).
In vitro phosphorylation assays were performed using GST-CBC1, His-HT1 and His-BdMPK5 (WT or D90N) recombinant proteins with or without 20 mM NaHCO3. Phosphorylation levels of CBC1 (top) and Coomassie brilliant blue (CBB)-stained gels (bottom) are shown. • (B) AlphaFold2-predicted complex of BdMPK5 with HT1. BdMPK5 is shown in red, while HT1 is shown in blue. The BdMPK5-D90 residue, which is mutant in chill1, is colored green, and is predicted, based on the wildtype BdMPK5-HT1 simulation, to lie at the interface of BdMPK5 and HT1.

[3] = biological target: T1, GST-CBC1 (recombinant Arabidopsis Raf-like kinase CBC1 with GST tag)
T1 sequence (Q9SSA4 whole entry, looked up): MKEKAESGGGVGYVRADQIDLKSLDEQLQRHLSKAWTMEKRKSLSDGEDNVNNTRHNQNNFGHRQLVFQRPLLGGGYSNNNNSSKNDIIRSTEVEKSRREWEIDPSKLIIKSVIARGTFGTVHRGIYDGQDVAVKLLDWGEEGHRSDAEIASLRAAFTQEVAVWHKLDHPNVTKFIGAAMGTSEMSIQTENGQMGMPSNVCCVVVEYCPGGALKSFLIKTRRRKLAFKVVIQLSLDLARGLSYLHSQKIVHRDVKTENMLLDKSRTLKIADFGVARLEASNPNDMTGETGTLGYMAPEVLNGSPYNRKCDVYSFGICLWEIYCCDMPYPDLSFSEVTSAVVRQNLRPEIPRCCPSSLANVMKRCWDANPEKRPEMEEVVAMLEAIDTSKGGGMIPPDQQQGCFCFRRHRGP

[4] = system: MPK4 and HT1; assay: in vitro pull-down assay, His-HT1 with GST-MPK4; type: binding, Arabidopsis; conditions: pull-down with or without 20 mM NaHCO3
Description: We therefore investigated a possible binding between MPK4 and HT1 and the effect of HCO3^−.
FIG. 4. […] CO2 concentration changes were applied as indicated on top (p.p.m.). n=6 experiments, error bars show ±SEM. • (J) Model of plant stomatal CO2 sensor and signaling (see text).
FIG. 6. […] Precipitated proteins were washed with buffers supplemented with NaHCO3 at the indicated concentrations (0, 2 or 20 mM). See FIG. 4d for an independent experiment. To control for effects of Na^+, 20 mM NaCl (0 mM NaHCO3) for lanes 1 and 4 were included in the buffers; and 18 mM NaCl (2 mM NaHCO3) for lane 3 were included in buffer.

[5] = biological target: T2, GST-MPK4 (recombinant Arabidopsis MAP kinase MPK4 with GST tag)
T2 chain: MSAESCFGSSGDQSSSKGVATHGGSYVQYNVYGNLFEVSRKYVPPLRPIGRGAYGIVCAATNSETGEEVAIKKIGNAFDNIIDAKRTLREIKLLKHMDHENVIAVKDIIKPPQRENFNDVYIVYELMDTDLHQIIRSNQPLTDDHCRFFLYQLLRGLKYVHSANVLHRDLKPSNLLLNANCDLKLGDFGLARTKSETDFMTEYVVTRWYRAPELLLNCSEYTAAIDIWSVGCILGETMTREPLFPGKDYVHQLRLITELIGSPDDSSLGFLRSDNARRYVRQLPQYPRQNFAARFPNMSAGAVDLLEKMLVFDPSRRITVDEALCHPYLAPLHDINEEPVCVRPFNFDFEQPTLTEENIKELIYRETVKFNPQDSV

[6] = system: MPK4/12, HT1 and CBC1 recombinant proteins; assay: in vitro phosphorylation assay: NaHCO3-dependent down-regulation of HT1-mediated CBC1 phosphorylation; type: biochemical, Arabidopsis; conditions: isoform replaces wild type protein or is added; 20 mM NaHCO3 vs NaCl control, 30 min
Description: We tested whether this HT1-mediated activation of CBC1 is inhibited by CO2/bicarbonate by adding NaHCO3 in in vitro phosphorylation reactions. […]
FIG. 2. […] Histone was used as an artificial protein kinase substrate. • (B) MPK4, HT1 and CBC1 proteins were incubated with NaHCO3 at the indicated concentrations for 30 min, and in vitro phosphorylation assays were performed. • (C) CBC1 band intensities as shown in (B) were measured using IMAGEJ™, n=4 experiments, error bars show ±S.D. • (D) MPK4, HT1 and CBC1 proteins were incubated in reaction buffers adjusted at different pH (6.5 to 8.5) for 30 min, and in vitro phosphorylation assays were performed. • (E) CBC1 band intensities and the density-ratios of ‘+NaHCO3’ to ‘—NaHCO3’ (=+NaCl controls) for each pH condition
FIG. 3. […] Ambient CO2 concentrations are indicated by the top bars. n=7 experiments, error bars show ±SEM. • (C) Recombinant HT1 (wild type, HT1-G89R or HT1-R173Q) and CBC1 proteins were incubated with MPK4 in the presence or absence of 20 mM NaHCO3 or 20 mM NaCl (−controls) for 30 min, and in vitro phosphorylation assays were performed. • (D) Recombinant MPK12, CBC1 and HT1 (WT or R102K) proteins were incubated with or without 20 mM NaHCO3 or 20 mM NaCl (−controls) for 30 min, and in vitro phosphorylation assays were performed. Histone was used as an artificial kinase substrate. • (E) HT1 (WT or A109V) proteins were used for in vitro phosphorylation assays. Proteins were incubated with or without 20 mM NaHCO3 or 20 mM NaCl (−controls) for 30 min. • (F) Stomatal conductances were analyzed using intact plants of Arabidopsis (Col-0 (WT), cbc1 cbc2, ht1-A109V and cbc1 cbc2 ht1-A109V). CO2 concentration changes were applied as indicated on top (p.p.m.). […]

[7] = biological target: T3, MPK12 (recombinant Arabidopsis MAP kinase MPK12)
T3 chain: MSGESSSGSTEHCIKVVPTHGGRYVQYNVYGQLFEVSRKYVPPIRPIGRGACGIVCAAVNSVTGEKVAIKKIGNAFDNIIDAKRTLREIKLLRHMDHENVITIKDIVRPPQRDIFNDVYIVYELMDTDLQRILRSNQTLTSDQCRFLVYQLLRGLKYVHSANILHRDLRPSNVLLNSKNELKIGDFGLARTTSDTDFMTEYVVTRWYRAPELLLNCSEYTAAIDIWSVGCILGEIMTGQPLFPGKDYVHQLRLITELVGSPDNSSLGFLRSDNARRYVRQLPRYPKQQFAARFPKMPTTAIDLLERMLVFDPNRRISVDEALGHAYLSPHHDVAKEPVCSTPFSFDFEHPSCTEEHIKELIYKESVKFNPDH

CC1=CC(=O)CC(C)(C)[C@@]1(O)/C=C/C(C)=C\C(=O)O [ABA, abscisic acid]
stomatal conductance response to ABA ([1]; T3 BdMPK5 CRISPR lines): steep decline in conductance
stomatal conductance response to ABA ([1]; chill1 leaves, 5-week old): responded similarly to WT

B1: BdMPK5: recombinant Brachypodium distachyon MAP kinase BdMPK5, SEQ ID NO: 13 (protein)
chain: MRMEGGGAGPAAAAAAGGAHGLGEAQIKGTLTHGGRYVQYNVYGNLFEVSAKYVPPIRPVGRGACGIICAAINVQTREEVAIKKIGNAFDNQIDAKRTLREVKLLRHMNHENVISIKDIIRPPRRENFNDVYIVYELMDTDLHHLLRSNQPLTDDHCQYFLYQVLRGLKYVHSANVLHRDLRPSNLLLNAKCDLKIGDFGLARTTTETDFMMEYVVTRWYRAPELLLNCSEYTGAIDMWSVGCILGEIATREPLFPGKDYVHQLRLITELLGSPDDTSLGFLRSDNARRYVRSLPQYPKQQFRSRFPNMSSGAMDLLERMLVFDPNKRITVDEALCHPYLASLHEINDEPVCPAPFSFDFEQPSFTEEDIKELIWRESVKFNPEPIH
modifications: Synthetic: Bd21-3 (WT) BdMPK5
high CO2/bicarbonate-mediated down-regulation of CBC1 phosphorylation with BdMPK5 protein [2]: high CO2/bicarbonate-induced down-regulation of the CBC1 protein kinase activity

B2: BdMPK5-D90N: chill1 variant of BdMPK5 protein, SEQ ID NO: 14 (protein)
chain: B1 chain with D90N
modifications: Synthetic: Chill1 BdMPK5
high CO2/bicarbonate-mediated down-regulation of CBC1 phosphorylation with BdMPK5 protein [2]: abrogated the high CO2/bicarbonate-mediated downregulation of CBC1 phosphorylation

B3: His-HT1 (recombinant Arabidopsis HT1 protein kinase, wild type, with His tag) (protein)
chain: MSGLCFNPFRLRWSLRSKLPLEPSLPNLPCNPSSSKTNRYAEAETMEKKRFDSMESWSMILESENVETWEASKGEREEWTADLSQLFIGNKFASGAHSRIYRGIYKQRAVAVKMVRIPTHKEETRAKLEQQFKSEVALLSRLFHPNIVQFIAACKKPPVYCIITEYMSQGNLRMYLNKKEPYSLSIETVLRLALDISRGMEYLHSQGVIHRDLKSNNLLLNDEMRVKVADFGTSCLETQCREAKGNMGTYRWMAPEMIKEKPYTRKVDVYSFGIVLWELTTALLPFQGMTPVQAAFAVAEKNERPPLPASCQPALAHLIKRCWSENPSKRPDFSNIVAVLEKYDECVKEGLPLTSHASLTKTKKAILDHLKGCVTSISSPFSSSSVPVNA
CBC1 phosphorylation, in vitro phosphorylation assay with radioactive 32P-ATP (FIG. 5) [3]: We confirmed CBC1 phosphorylation by HT1 using recombinant His-HT1 and GST-CBC1 proteins

B4: HT1-R173Q (protein)
chain: B3 chain with R173Q
HCO3- dependent binding of HT1 isoform with MPK4 [4]: partially interact with MPK4
NaHCO3-dependent CBC1 downregulation, in vitro phosphorylation assay with MPK4 and CBC1 (FIG. 3C) [5]: the R173Q mutation partly impaired the NaHCO3-dependent CBC1 downregulation
NaHCO3-mediated down-regulation of CBC1 phosphorylation/activity with the protein isoform in the reaction [6]: partly impaired the NaHCO3-dependent CBC1 downregulation

B5: HT1-R102K (protein)
chain: B3 chain with R102K
HCO3- dependent binding of HT1 isoform with MPK4 [4]: did not show a bicarbonate-induced interaction of HT1 with MPK4
NaHCO3-triggered down-regulation of CBC1 phosphorylation and CBC1 activity, in vitro phosphorylation assay with MPK12 and CBC1 (FIG. 3D, n=3) [7]: both of these R102K and A109V mutations disrupt the NaHCO3-triggered down-regulation of CBC1 phosphorylation and CBC1 activity
NaHCO3-mediated down-regulation of CBC1 phosphorylation/activity with the protein isoform in the reaction [6]: disrupt the NaHCO3-triggered down-regulation of CBC1 phosphorylation and CBC1 activity

Reference: US20260078398A1, “PLANTS GENETICALLY ENGINEERED FOR INCREASED WATER USE EFFICIENCY AND CARBON INTAKE AND METHODS FOR MAKING AND USING THEM” (The Regents of the University of California, priority 2022, published 2026)
